The values below come from publication PMC7506556, “Structure and function of bacteriophage CBA120 ORF211 (TSP2), the determinant of phage specificity towards E. coli O157:H7” (Scientific Reports, 2020).

Changes are numbered by the printed parent chain. In names and notes the source's numbering stands.

The labels stand for the following.
B1: E456A:E483A TSP1 (enzyme)
chain: MNEMFSQGGKGSTGILTNKQAVARHFGVKQSEVVYFSVGVDLGGYKVIYDKETQRAYSLPVGIASGTTAVSLSTAAVLVHSAGSVDLGSLAVSREEYVTLPGSFDSGSTLNVKNELLTYTDGKYRWDGILPKTVAPGSTPASTGGVGLGAWISVGDASLRTQLANGDGSLIGIHPQGTLNNVLTVRTPEQYNAVGDGIADDTSKLKEMLSDINNVPETLPDAAAVNSYMEQVAVKIDLTKLYRFTETLYIPPGVSIEIPTSNFFTRECKQGLFYDPVDKNTAAISLMVYRKQPDGSYKLNKDVDYYPTGLDIDNGDAITCARKIDINNLNLITAPGVKVGVKWIGGAGCTTKGLSIGENTGSDITTARLPRVGLLQSASWGSIHENLRILYKTQGAVFIDSNGGAAVNNAYISRLGNTNGELEQAVYKPAGFTEVGDVAVTQFAGSEVKFNSPIIAQASFDFVHAGRDTDSYGLFMVDKPHIASSGGKKKHSFYLINTSSNVTLSGVGLSGQDPDLDSMYFLKNCPETARNVVRGQMPISGVKLVRGTGNYPTLVLDCTNMGSQFQFGEVGDIFYIKDVVGVKADTLYIDPVNGNNYNWGTNGTKPIRELTNIAKICQLFRCKSVYLNAGESVITSNTELPMVVFEGPGSLKANSGSSFLIKAGGTLSLIGLSGISTDGGHMFRVSTVEKVNIHTNCSVNAGAAYVVLSEVQGNIEYRQLFYSVNCSKYIGATAGQTIAGIMVKTATRPTGIDAAPVDGNVSLTYKIIES
notes: source: E. coli BL21(DE3), purified similar to wild type TSPs
B2: E456Q:E483Q TSP1 (enzyme)
chain: B1 chain with A456Q, A483Q
notes: as for B1
B3: D313N:E456Q:E483Q TSP1 (enzyme)
chain: B1 chain with D313N, A456Q, A483Q
notes: as for B1
B4: D506N:E568Q:D571N TSP2 (enzyme, UniProt G3M190 1-921, looked up)
chain: MTRNVEELFGGVITAPHQIPFTYKSNVGGETFLSLPFYPVTGVVTINGGMQVPLDNFEIEGNTLNLGRALSKGDVVYCLFDKILSPEDTAKGIRIYKFQAVGGETEFTPDFTSYGVQSLYIGGEYKTPEIEYSYDSTTGKVSLQTALSAGVWVVAEMSVKQPNISPAFDRSIQEIARSANVKDSEVIVSTDTISLLDGKKVVYDIATQTSYGLPTIPDGSVISSVSAGKLNYNPGDVQVDLLPLEDSFINVINTLGRNDGAKYIGECHSVADLRNTEPTMDGQRIILKQHTAGTLLGGGVFRALIDGTGKTDNNGTVIKTVGGAAWLRVNADRVNPFMFGALGGSNDDTIPVQSCVDSGKATQLTDAHYVSNIQLKYNTSSIYGSGLHYSRLHQLPSATGNCITIKDTCSLIVLDAFGVYGTGAQQGTSFTAGTTGIYVETPSGLSADYPFHTTADPRRDLCISKVHIAGFDEYGLNIDSGNFSVTTDSLLVNHINQVGVRCATTNWTWTNIQVNTCGKQCLVLDGCGNGRIIGGKFIWANWQPYGTVGQFPGITINNSQNMVINGIQVQNCGGNGIEISESYSISMNGLNTNRNGINANNTFYNIVFNKSDAVINGFVGLNYAANSGSGANSSAGNFQFLSNDCSVTINGVVETGYMGINFIGDNNIINPTNSDLSINGLVNYSKTGLQTMNETPTFDGVSTTPVYVSVPSSVGQVNGLRLSQANKDKLLYSRTAGPEGITMAAVIVPTISGAEVFNFMAIGSGFSDTSNSLHLQLVIDASGKQTIALLLGGDGTTQILSGDLPNDLKLQSGVPYHIAIGAKPGYFWWSILNIQTGKRIRRSFRGAYLAVPFNSIFGLTSSLTFFSDSNAGGDACSGVGAKVYVGMFSSENDYVASRYYNLINPVDPTKLISYRILDSSI
notes: Made by Q5 site-directed mutagenesis of the TSP2 plasmid; source: E. coli BL21(DE3), purified similar to wild type TSPs
B5: D506A:D571N TSP2 (enzyme, UniProt G3M190 1-921, looked up)
chain: B4 chain with N506A, Q568E
notes: as for B4
B6: D506A:D571A TSP2 (enzyme, UniProt G3M190 1-921, looked up)
chain: B4 chain with N506A, Q568E, N571A
notes: Made by Q5 site-directed mutagenesis of the TSP2 plasmid; also called TSP2 D506A:D571A double mutant; source: E. coli BL21(DE3), purified similar to wild type TSPs
B7: D506N:E568A:D571N TSP2 (enzyme, UniProt G3M190 1-921, looked up)
chain: B4 chain with Q568A
notes: as for B4
B8: D506N:D571N TSP2 (enzyme, UniProt G3M190 1-921, looked up)
chain: B4 chain with Q568E
notes: Made by Q5 site-directed mutagenesis of the TSP2 plasmid; also called TSP2 D506N:D571N double mutant; TSP2 asparagine double mutant; source: E. coli BL21(DE3), purified similar to wild type TSPs
B9: TSP2 D506N:D571N:Y623A mutant (enzyme, UniProt G3M190 1-921, looked up)
chain: B4 chain with Q568E, Y623A
notes: as for B4
B10: D506N:D571A TSP2 (enzyme, UniProt G3M190 1-921, looked up)
chain: B4 chain with Q568E, N571A
notes: as for B4
B11: bacteriophage CBA120 ORF211 (TSP2), wild type (enzyme, UniProt G3M190 1-921, looked up)
chain: B4 chain with N506D, Q568E, N571D
notes: 921-residue polypeptide chain; gene codon optimized for E. coli; residues 1-168 have no electron density in the crystal; Calculated monomer mass 99,054 Da with the 6X-His tag; also called tailspike protein 2; wild-type TSP2; source: E. coli Rosetta-gami 2 (pBAD24), purified (Ni-NTA); not shown: 6X-His, C-terminal, kept

One data set deals with the molecule itself. In words: not stated; purified TSP1 site-directed mutants; how the trimeric state was shown is not told.
As usually defined, the stoichiometry N is a count of units in the complex or per binding partner. For B1, the “stoichiometry N” value is 3.
For B2, the “stoichiometry N” value is 3.
As to B3, the “stoichiometry N” value was 3.

The next data set concerns the molecule itself. The data set is described as follows: not stated; purified TSP2 site-directed mutants; how the trimeric state was shown is not told.
As for B4, the “stoichiometry N” value worked out at 3.
For B5, the “stoichiometry N” value is 3.
On to B6, for which the “stoichiometry N” value turned out to be 3.
Take B7: the “stoichiometry N” value was found to be 3.
Take B8: the “stoichiometry N” value was determined as 3.
Still for that read-out and setting: as for B9, the figure is 3; as for B10, 3.

A further data set deals with the molecule itself. In words: crystal structure; sitting drops, vapor diffusion, room temperature, 0.8 M ammonium sulfate, 0.1 M HEPES pH 7.0; 1.9 Å; two homotrimers in the asymmetric unit.
Turning to B11, the “stoichiometry N” value was 3.
